“Also recorded” adds a separate entry of the source.
Legend:
[1] = tested on: IR and Akt kinase pathway; assay: Subconjunctival insulin administration: retinal IR and Akt kinase pathway activation; format: in vivo, Sprague-Dawley rats
Akt = assay: Intraportal insulin injection: retinal Akt (serine 473) phosphorylation Western blot; format: in vivo, Sprague-Dawley rats; conditions: retina, 45 minutes post-injection, 500 μg insulin bolus via portal vein
Protocol: (§1) Intraportal insulin injection was performed to determine if a single bolus insulin injection, and therefore an acute elevation in circulating insulin, could activate retinal insulin receptors (IR) in vivo as it does in other tissues. Intraportal insulin injection was conducted as follows. Male Sprague-Dawley rats (Charles River, Mass.) weighing 200 350 g were fasted 18 hours prior to being anesthetized with a 10:1 ketamine:xylazine cocktail (53.5 mg/kg ketamine and 5.33 mg/kg xylazine) administered by intramuscular injection. The fasted rats were administered a 500 μg bolus of insulin, nothing (sham), or vehicle (0.9% saline) via the portal vein. […]
(§2) Tissue lysates were immunoprecipitated and immunoblotted as described by Barber et al. (2001, J. Biol. Chem. 276: 32814 32831). Tissues were homogenized in an immunoprecipitation (IP) lysis buffer (consisting of 50 mM HEPES, pH 7.3, 137 mM NaCl, 1 mM MgCl2, 2 mM NaVO4, 10 mM Na2H2P2O7, 10 mM NaF, 2 mM EDTA, 2 mM PMSF, 10 mM benzamidine, 10% glycerol, 1% NP-40, and 1 protease inhibitor tablet (Boehringer-Mannheim) per 10 mL of buffer. Homogenates were rocked 15 minutes at 4° C. and then centrifuged at 14,000 rpm at 4° C. Prior to immunoprecipitation and immunoblotting, the resulting supernatant was subjected to protein assay (Bio-Rad) and quantification. […]

[2] = 0.0325 U/100 g insulin, subconjunctival space
From the text: This route of administration bypasses the BRB for a more direct route of insulin action on retina. […] The retina was processed for IRβ PY content as described in Example 1.

[3] = target: T1, insulin receptor beta-subunit (IRβ) (Rattus norvegicus, UniProt P15127); assay: Intraportal insulin injection: muscle IRβ tyrosine phosphorylation (PY Western blot); format: in vivo, Sprague-Dawley rats; parameters: hindquarter skeletal muscle and retina were snap-frozen under liquid nitrogen; from tissue; host or cells: rat retina; conditions: 500 μg insulin bolus via portal vein
Protocol: Intraportal insulin injection was performed to determine if a single bolus insulin injection, and therefore an acute elevation in circulating insulin, could activate retinal insulin receptors (IR) in vivo as it does in other tissues. Intraportal insulin injection was conducted as follows. Male Sprague-Dawley rats (Charles River, Mass.) weighing 200 350 g were fasted 18 hours prior to being anesthetized with a 10:1 ketamine:xylazine cocktail (53.5 mg/kg ketamine and 5.33 mg/kg xylazine) administered by intramuscular injection. The fasted rats were administered a 500 μg bolus of insulin, nothing (sham), or vehicle (0.9% saline) via the portal vein. At 15, 30, 45 and 60 minutes post injection (shown in FIG. 2A), hindquarter skeletal muscle and retina were snap-frozen under liquid nitrogen, and then stored at −80° C. pending analysis by immunoprecipitation and immunoblotting. There was no difference in insulin receptor beta-subunit (IRβ) phosphorylation between vehicle (V) and insulin (I) injection.
Tissue lysates were immunoprecipitated and immunoblotted as described by Barber et al. (2001, J. Biol. Chem. 276: 32814 32831). Tissues were homogenized in an immunoprecipitation (IP) lysis buffer (consisting of 50 mM HEPES, pH 7.3, 137 mM NaCl, 1 mM MgCl2, 2 mM NaVO4, 10 mM Na2H2P2O7, 10 mM NaF, 2 mM EDTA, 2 mM PMSF, 10 mM benzamidine, 10% glycerol, 1% NP-40, and 1 protease inhibitor tablet (Boehringer-Mannheim) per 10 mL of buffer. Homogenates were rocked 15 minutes at 4° C. and then centrifuged at 14,000 rpm at 4° C. Prior to immunoprecipitation and immunoblotting, the resulting supernatant was subjected to protein assay (Bio-Rad) and quantification.
Immunoprecipitations were performed as follows. […] Fifty μg of protein per sample were analyzed by SDS-polyacrylamide gel electrophoresis (SDS-PAGE). […] Positive signals were detected with […] (ECL) kits (Cell Signaling) and electrochemifluoresence (ECF) kits (Amersham) each performed according to each manufacturer's protocol. […]

[4] = target: T2, insulin-like growth factor I receptor (IGF-IRβ) (Rattus norvegicus, UniProt P24062); assay: Retinal explants: IGF-IRβ tyrosine phosphorylation; format: cell-based
T2 construct: from tissue; host or cells: rat retinal explants
Protocol: (§3) A tissue explant culture system was used to characterize insulin-signaling transduction in retina without the hindrance of the blood retinal barrier present in whole animal models. Such a tissue explant culture system was developed as follows. Rats as described in Examples 1 and 2 were anesthetized using sodium pentobarbital ([…]), and then decapitated upon loss of motor reflexes. Rat retinas were removed by cutting across the cornea, removing the lens, and squeezing the eyeball to rapidly extract the retina. Retinas were pre-incubated in MEM (Sigma) supplemented with 5 mM pyruvate and 10 mM HEPES for 15 minutes at 37° C., 5% CO2, and with gentle shaking. Ten nM insulin or vehicle was added following pre-incubation. At 2, 5, 15, and 30 minutes after insulin addition, retinas were snap-frozen in liquid nitrogen for future use.
Retinas were treated with either 1.3 nM IGF-1 or 0, 1, 10, 100, and 1000 nM insulin, and then retinal lysates were immunoprecipitated with an insulin-like growth factor I receptor (IGF-IRβ)-specific antibody, followed by PY Western blotting (shown in FIG. 6). The IGF1-R was immunoprecipitated and PY Western blotting performed as described above.

[5] = target: T1, insulin receptor beta-subunit (IRβ); assay: Retinal tissue explant culture: IRβ tyrosine phosphorylation; format: cell-based; parameters: from tissue; host or cells: rat retinal explants; conditions: 10 nM insulin
Protocol: as §3
To examine the time course of insulin signaling events in the tissue, insulin-treated retinas were compared to retinas that received vehicle (0.9% saline) and to untreated retinas. Tissues were analyzed by immunoprecipitation and Western blotting as described in Example 1.

[6] = target: T1, insulin receptor beta-subunit (IRβ); assay: Intraportal insulin injection: retina IRβ tyrosine phosphorylation (PY Western blot); format: in vivo, Sprague-Dawley rats; parameters: hindquarter skeletal muscle and retina were snap-frozen under liquid nitrogen; from tissue; host or cells: rat retina; conditions: 500 μg insulin bolus via portal vein, fasted rats
Protocol: as §1, §2

T1 sequence (P15127 764-1383 limits assumed): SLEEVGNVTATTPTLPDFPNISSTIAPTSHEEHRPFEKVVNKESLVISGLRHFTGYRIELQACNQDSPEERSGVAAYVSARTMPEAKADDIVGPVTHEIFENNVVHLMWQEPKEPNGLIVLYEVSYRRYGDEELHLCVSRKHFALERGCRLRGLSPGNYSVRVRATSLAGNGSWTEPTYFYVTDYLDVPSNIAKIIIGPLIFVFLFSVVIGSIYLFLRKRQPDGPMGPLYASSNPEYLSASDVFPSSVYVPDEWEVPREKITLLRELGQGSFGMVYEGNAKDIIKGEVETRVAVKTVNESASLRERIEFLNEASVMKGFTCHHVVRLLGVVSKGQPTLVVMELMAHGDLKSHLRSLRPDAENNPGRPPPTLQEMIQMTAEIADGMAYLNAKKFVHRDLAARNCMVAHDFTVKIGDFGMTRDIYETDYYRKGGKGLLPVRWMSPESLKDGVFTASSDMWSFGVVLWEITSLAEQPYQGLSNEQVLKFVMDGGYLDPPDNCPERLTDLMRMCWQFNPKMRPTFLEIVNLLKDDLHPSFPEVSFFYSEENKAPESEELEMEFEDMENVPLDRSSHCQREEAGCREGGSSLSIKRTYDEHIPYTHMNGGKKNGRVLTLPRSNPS
T1 sequence (P15127 27-759 limits assumed): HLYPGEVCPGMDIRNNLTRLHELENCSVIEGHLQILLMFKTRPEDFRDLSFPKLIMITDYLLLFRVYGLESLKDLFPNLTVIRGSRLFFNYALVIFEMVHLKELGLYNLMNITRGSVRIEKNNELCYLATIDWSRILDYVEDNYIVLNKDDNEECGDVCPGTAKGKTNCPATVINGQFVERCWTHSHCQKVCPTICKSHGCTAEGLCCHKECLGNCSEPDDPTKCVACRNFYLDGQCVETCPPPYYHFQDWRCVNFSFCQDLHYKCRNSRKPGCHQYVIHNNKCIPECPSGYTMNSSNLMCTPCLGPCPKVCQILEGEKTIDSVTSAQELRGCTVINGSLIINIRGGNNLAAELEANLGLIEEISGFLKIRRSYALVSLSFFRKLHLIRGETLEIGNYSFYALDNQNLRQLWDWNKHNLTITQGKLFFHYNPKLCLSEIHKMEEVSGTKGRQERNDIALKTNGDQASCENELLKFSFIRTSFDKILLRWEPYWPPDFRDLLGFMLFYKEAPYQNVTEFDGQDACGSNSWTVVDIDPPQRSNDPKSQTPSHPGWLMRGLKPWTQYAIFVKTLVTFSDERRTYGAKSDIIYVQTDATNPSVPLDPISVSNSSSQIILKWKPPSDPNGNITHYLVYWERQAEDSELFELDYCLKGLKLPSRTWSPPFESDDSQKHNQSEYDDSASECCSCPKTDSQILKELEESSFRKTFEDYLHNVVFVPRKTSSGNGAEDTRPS
T2 sequence (P24062 742-1370 limits assumed): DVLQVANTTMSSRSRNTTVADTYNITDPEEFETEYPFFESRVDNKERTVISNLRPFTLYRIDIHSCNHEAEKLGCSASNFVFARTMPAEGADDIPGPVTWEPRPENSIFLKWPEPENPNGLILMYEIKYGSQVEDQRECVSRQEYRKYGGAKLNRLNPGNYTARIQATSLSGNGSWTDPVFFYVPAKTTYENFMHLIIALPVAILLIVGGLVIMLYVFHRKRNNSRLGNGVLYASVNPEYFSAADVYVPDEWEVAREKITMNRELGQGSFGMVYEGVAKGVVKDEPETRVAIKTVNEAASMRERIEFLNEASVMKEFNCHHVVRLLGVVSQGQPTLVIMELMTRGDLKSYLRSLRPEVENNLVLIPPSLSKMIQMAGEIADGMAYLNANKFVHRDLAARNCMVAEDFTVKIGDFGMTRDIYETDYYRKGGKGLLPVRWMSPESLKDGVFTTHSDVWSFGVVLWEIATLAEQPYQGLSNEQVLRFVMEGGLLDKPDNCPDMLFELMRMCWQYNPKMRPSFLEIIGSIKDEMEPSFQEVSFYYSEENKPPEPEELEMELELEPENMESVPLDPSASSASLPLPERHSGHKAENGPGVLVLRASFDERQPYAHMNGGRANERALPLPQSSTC
T2 sequence (P24062 31-737 limits assumed): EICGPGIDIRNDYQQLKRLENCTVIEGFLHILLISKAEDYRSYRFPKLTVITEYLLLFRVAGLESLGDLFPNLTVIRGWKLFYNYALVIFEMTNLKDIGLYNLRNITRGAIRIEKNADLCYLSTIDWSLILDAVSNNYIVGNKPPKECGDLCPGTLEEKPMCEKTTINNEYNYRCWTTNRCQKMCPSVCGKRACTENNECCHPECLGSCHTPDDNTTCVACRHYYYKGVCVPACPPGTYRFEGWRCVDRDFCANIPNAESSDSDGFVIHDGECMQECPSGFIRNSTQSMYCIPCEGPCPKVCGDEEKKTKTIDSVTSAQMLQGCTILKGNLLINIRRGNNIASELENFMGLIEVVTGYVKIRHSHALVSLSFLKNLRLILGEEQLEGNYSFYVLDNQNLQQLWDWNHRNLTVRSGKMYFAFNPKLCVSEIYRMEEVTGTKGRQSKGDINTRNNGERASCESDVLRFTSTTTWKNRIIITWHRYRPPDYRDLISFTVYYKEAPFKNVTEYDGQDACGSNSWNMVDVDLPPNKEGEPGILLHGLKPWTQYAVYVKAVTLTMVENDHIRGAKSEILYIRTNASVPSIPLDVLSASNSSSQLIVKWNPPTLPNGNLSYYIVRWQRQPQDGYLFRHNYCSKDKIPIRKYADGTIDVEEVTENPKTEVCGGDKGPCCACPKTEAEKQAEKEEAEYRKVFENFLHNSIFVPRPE

## insulin
[1]; 0.0325 U/100 g insulin, subconjunctival space, normal rats
  activation of the IR and Akt kinase pathway: activated
[1]; subconjunctival insulin, FIG. 8
  retinal IRβ PY content, insulin eye compared to contralateral vehicle eye: phosphorylated
Akt
  increase in phosphoserine 473 content of Akt over vehicle injected controls: 48%
[2]
  effect on blood glucose values: without lowering blood glucose values
[3]; fasted rats
  time of peak muscle IRβ phosphotyrosine increase: 30 min
[3]; fasted rats, 15 minutes post-injection, zero time point set to 1
  increase in phosphotyrosine content in muscle IRβ (PY/IRβ ratio): ~30 fold
[3]; 15, 30, 45 and 60 minutes post injection
  muscle IRβ phosphorylation response (qualitative): robust response; also recorded: significant increase
[4]; 10 nM insulin
  IGF-IRβ phosphorylation: remained unchanged
[4]; 100 nM insulin, comparator 1.3 nM IGF-1
  IGF-IRβ phosphorylation: increased
[5]; 30 minute time point
  retinal IRβ phosphotyrosine immunoreactivity, fold greater than baseline: 3 fold
[5]; within 2 minutes of stimulation, normalized to total IRβ
  retinal IRβ phosphotyrosine immunoreactivity, fold greater: ~4 fold
[5]; 2, 5, 15 and 30 minutes, normalized to total IRβ
  retinal explant IRβ phosphorylation (qualitative): significant increase
[6]
  time of maximal retinal IRβ tyrosine phosphorylation: 45 min
  time until retinal IRβ tyrosine phosphorylation increased: 30 min
